Experimental data: the supplement of paper PMC9112550, “Optimization of the antimicrobial peptide Bac7 by deep mutational scanning” (BMC Biology, 2022)

System: Escherichia coli TOP10
Experiment: shrunken log2 fold change of peptide-encoding DNA abundance (4.5 h post-induction vs induction); higher = less antimicrobial activity (less host growth inhibition)
Conditions: time post-induction: 4.5 h; library: site-saturation at positions 5, 18, 19, 20
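Also: peptides expressed intracellularly from a pBAD plasmid library in pooled LB shake-flask culture, induced with 0.3% L-arabinose, DNA abundance read by NGS, three biological replicates, DESeq2 with apeglm shrinkage.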

Sequence | shrunken log2 fold change
RRIRWRPPRLPRPRPRPYLNPRP | -0.777
RRIRTRPPRLPRPRPRPCVWPRP | -0.000289
RRIRWRPPRLPRPRPRPYSPPRP | -1.1
RRIRCRPPRLPRPRPRPTIWPRP | 0.105
RRIRSRPPRLPRPRPRPQDVPRP | -0.277
RRIRWRPPRLPRPRPRPINPPRP | -0.247
RRIRHRPPRLPRPRPRPQTKPRP | -0.0667
RRIRMRPPRLPRPRPRPFPLPRP | -0.0414
RRIRERPPRLPRPRPRPKTIPRP | -0.232
RRIRVRPPRLPRPRPRPTMCPRP | 0.15
RRIRGRPPRLPRPRPRPVPHPRP | -0.0133
RRIRCRPPRLPRPRPRPGGSPRP | 0.0334
RRIRWRPPRLPRPRPRPYWMPRP | -0.265
RRIRKRPPRLPRPRPRPSNGPRP | -0.00174
RRIRRRPPRLPRPRPRPKIMPRP | -0.0825
RRIRHRPPRLPRPRPRPLKVPRP | 0.0138
RRIRWRPPRLPRPRPRPILEPRP | -0.548
RRIRTRPPRLPRPRPRPPEIPRP | 0.0182
RRIRTRPPRLPRPRPRPEELPRP | 0.0343
RRIRSRPPRLPRPRPRPCKVPRP | -0.265
RRIRFRPPRLPRPRPRPNMEPRP | -0.129
RRIRMRPPRLPRPRPRPHPLPRP | 0.37
RRIRKRPPRLPRPRPRPIIYPRP | 0.0162
RRIRPRPPRLPRPRPRPPKSPRP | 0.177
RRIRKRPPRLPRPRPRPAIHPRP | -0.0696

Sequence | shrunken log2 fold change
RRIRTRPPRLPRPRPRPNDLPRP | -0.354
RRIRTRPPRLPRPRPRPAESPRP | 0.0351
RRIRIRPPRLPRPRPRPQWDPRP | 0.92
RRIRCRPPRLPRPRPRPMNAPRP | -0.422
RRIRSRPPRLPRPRPRPFRHPRP | -0.0389
RRIRMRPPRLPRPRPRPRNTPRP | 0.354
RRIRWRPPRLPRPRPRPGQMPRP | 0.0528
RRIRNRPPRLPRPRPRPWYIPRP | 0.00246
RRIRHRPPRLPRPRPRPTRMPRP | 0.237
RRIRDRPPRLPRPRPRPRGKPRP | -0.0455
RRIRIRPPRLPRPRPRPNVIPRP | -0.82
RRIRRRPPRLPRPRPRPAVVPRP | 0.518
RRIRWRPPRLPRPRPRPSVAPRP | 0.491
RRIRLRPPRLPRPRPRPNACPRP | 0.127
RRIRMRPPRLPRPRPRPRQCPRP | 0.594
RRIRDRPPRLPRPRPRPMGIPRP | 0.0303
RRIRTRPPRLPRPRPRPMFRPRP | -0.193
RRIRYRPPRLPRPRPRPLTMPRP | -0.529
RRIRDRPPRLPRPRPRPQWTPRP | 0.448
RRIRERPPRLPRPRPRPVRSPRP | 0.0119
RRIRKRPPRLPRPRPRPKKMPRP | 0.718
RRIRLRPPRLPRPRPRPLELPRP | -0.0406
RRIRQRPPRLPRPRPRPYTRPRP | -0.0062
RRIRSRPPRLPRPRPRPGGCPRP | 0.304
RRIRHRPPRLPRPRPRPLKLPRP | 0.0187

Sequence | shrunken log2 fold change
RRIRCRPPRLPRPRPRPMSYPRP | -0.23
RRIRVRPPRLPRPRPRPVKKPRP | 0.02
RRIRFRPPRLPRPRPRPSERPRP | -0.0251
RRIRIRPPRLPRPRPRPRGLPRP | -0.272
RRIRGRPPRLPRPRPRPSPVPRP | 0.585
RRIRYRPPRLPRPRPRPHENPRP | -0.212
RRIRDRPPRLPRPRPRPGHFPRP | 0.0123
RRIRTRPPRLPRPRPRPNHLPRP | -0.15
RRIRERPPRLPRPRPRPYSPPRP | -0.0774
RRIRRRPPRLPRPRPRPLWFPRP | 0.396
RRIRGRPPRLPRPRPRPGFHPRP | 0.296
RRIRLRPPRLPRPRPRPLKKPRP | 0.162
RRIRARPPRLPRPRPRPMATPRP | 0.601
RRIRIRPPRLPRPRPRPVIQPRP | -1.44
RRIRFRPPRLPRPRPRPNLNPRP | -0.504
RRIRQRPPRLPRPRPRPSVTPRP | -0.0462
RRIRRRPPRLPRPRPRPSREPRP | 0.962
RRIRPRPPRLPRPRPRPVYMPRP | -1.1
RRIRVRPPRLPRPRPRPWADPRP | -0.0322
RRIRGRPPRLPRPRPRPIAGPRP | 0.701
RRIRYRPPRLPRPRPRPSPTPRP | -0.167
RRIRRRPPRLPRPRPRPGDYPRP | -0.045
RRIRLRPPRLPRPRPRPIDIPRP | 0.00368
RRIRIRPPRLPRPRPRPVLFPRP | -0.357
RRIRSRPPRLPRPRPRPDNNPRP | -0.268

Sequence | shrunken log2 fold change
RRIRYRPPRLPRPRPRPQLVPRP | -0.045
RRIRMRPPRLPRPRPRPFAKPRP | 0.3
RRIRERPPRLPRPRPRPAAEPRP | 0.0581
RRIRTRPPRLPRPRPRPLEYPRP | -0.668
RRIRFRPPRLPRPRPRPDEWPRP | 0.0983
RRIRGRPPRLPRPRPRPDLLPRP | 1.51
RRIRMRPPRLPRPRPRPIHCPRP | -0.105
RRIRVRPPRLPRPRPRPHFPPRP | 0.046
RRIRPRPPRLPRPRPRPSDTPRP | -0.29
RRIRHRPPRLPRPRPRPCAGPRP | -0.195
RRIRERPPRLPRPRPRPLDVPRP | -0.304
RRIRTRPPRLPRPRPRPYLDPRP | -0.381
RRIRNRPPRLPRPRPRPDTMPRP | -1.25
RRIRARPPRLPRPRPRPHPGPRP | 0.219
RRIRYRPPRLPRPRPRPACCPRP | -0.405
RRIRWRPPRLPRPRPRPSDKPRP | -0.246
RRIRHRPPRLPRPRPRPSWHPRP | -0.759
RRIRDRPPRLPRPRPRPEQSPRP | 0.964
RRIRRRPPRLPRPRPRPDAGPRP | 0.307
RRIRGRPPRLPRPRPRPGSSPRP | 0.028
RRIRWRPPRLPRPRPRPPTLPRP | 0.315
RRIRTRPPRLPRPRPRPWLKPRP | 0.18
RRIRYRPPRLPRPRPRPQPQPRP | -0.0927
RRIRNRPPRLPRPRPRPNDSPRP | -0.235
RRIRHRPPRLPRPRPRPMQHPRP | 0.0685

Sequence | shrunken log2 fold change
RRIRGRPPRLPRPRPRPWCFPRP | 0.212
RRIRDRPPRLPRPRPRPRNTPRP | -0.205
RRIRERPPRLPRPRPRPCCIPRP | 0.0508
RRIRDRPPRLPRPRPRPGPGPRP | 0.764
RRIRFRPPRLPRPRPRPCLLPRP | -1.19
RRIRMRPPRLPRPRPRPCITPRP | 0.156
RRIRTRPPRLPRPRPRPSGLPRP | -0.573
RRIRQRPPRLPRPRPRPRPVPRP | 0.336
RRIRRRPPRLPRPRPRPITQPRP | -0.0203
RRIRHRPPRLPRPRPRPCKPPRP | -0.314
RRIRERPPRLPRPRPRPSVPPRP | -0.235
RRIRHRPPRLPRPRPRPFIRPRP | 0.00659
RRIRLRPPRLPRPRPRPEKAPRP | 0.166
RRIRGRPPRLPRPRPRPVIDPRP | 0.292
RRIRGRPPRLPRPRPRPCLLPRP | 0.164
RRIRRRPPRLPRPRPRPGCGPRP | 0.657
RRIRIRPPRLPRPRPRPQTLPRP | -0.129
RRIRRRPPRLPRPRPRPDGEPRP | -0.0341
RRIRIRPPRLPRPRPRPNQPPRP | -0.0903
RRIRRRPPRLPRPRPRPVCWPRP | 0.586
RRIRGRPPRLPRPRPRPKWYPRP | 0.806
RRIRTRPPRLPRPRPRPTPEPRP | 0.08
RRIRIRPPRLPRPRPRPEIWPRP | -0.18
RRIRQRPPRLPRPRPRPKPRPRP | 0.309
RRIRARPPRLPRPRPRPASTPRP | 0.318

Sequence | shrunken log2 fold change
RRIRYRPPRLPRPRPRPKYYPRP | -1.43
RRIRIRPPRLPRPRPRPPYTPRP | -0.822
RRIRGRPPRLPRPRPRPCSIPRP | 0.0747
RRIRDRPPRLPRPRPRPMEAPRP | -0.0266
RRIRCRPPRLPRPRPRPKFMPRP | -0.527
RRIRIRPPRLPRPRPRPVCYPRP | -0.633
RRIRCRPPRLPRPRPRPIPRPRP | 0.73
RRIRIRPPRLPRPRPRPHSNPRP | -0.502
RRIRERPPRLPRPRPRPWTSPRP | -0.028
RRIRHRPPRLPRPRPRPKVKPRP | 0.235
RRIRHRPPRLPRPRPRPVSYPRP | -0.00133
RRIRVRPPRLPRPRPRPACEPRP | 0.165
RRIRTRPPRLPRPRPRPWNTPRP | -0.0118
RRIRWRPPRLPRPRPRPNVGPRP | -0.129
RRIRHRPPRLPRPRPRPKQDPRP | -0.557
RRIRLRPPRLPRPRPRPSVVPRP | -0.196
RRIRQRPPRLPRPRPRPNYPPRP | -0.239
RRIRLRPPRLPRPRPRPDLIPRP | -0.0276
RRIRCRPPRLPRPRPRPNFQPRP | -0.438
RRIRSRPPRLPRPRPRPGRKPRP | 0.133
RRIRCRPPRLPRPRPRPNRGPRP | -0.00554
RRIRDRPPRLPRPRPRPRREPRP | 0.281
RRIRARPPRLPRPRPRPWWIPRP | -0.0901
RRIRKRPPRLPRPRPRPSALPRP | 0.271
RRIRKRPPRLPRPRPRPQSNPRP | 0.0971
